Ends that are not written are not given here. * marks the point of attachment. FITC = O=C1OC2(c3ccc(O)cc3Oc3cc(O)ccc32)c2ccc(NC(=S)*)cc21
B1: CPEB4^NES-R peptide used for crystallization (peptide)
peptide: GGSYRMIDILSSELSHMDFTR
notes: also called CPEB4-R; source: E. coli BL-21(DE3), MBP fusion purified (amylose, ion exchange), cleaved with TEV, peptide isolated by gel filtration; not shown: MBP, N-terminal, cleaved
B2: CPEB4^NES peptide used for crystallization (GGSY-379RTFDMHSLESSLIDI393) (peptide)
peptide: GGSYRTFDMHSLESSLIDI
notes: residues before the NES that are left after TEV cleavage; NES of CPEB4, residues 379-393; source: E. coli BL-21(DE3), MBP fusion purified (amylose, ion exchange), cleaved with TEV, peptide isolated by gel filtration; not shown: MBP, N-terminal, cleaved
B3: PKI^NES-Flip3 peptide used for crystallization (peptide)
peptide: GGSYRSFDMNELALKLAGLD
notes: PKI NES helix with the ΦXΦ motif moved to the N-terminus and made larger (FDM), after GGSY left from TEV cleavage; also called PKI-Flip3; source: E. coli BL-21(DE3), MBP fusion purified (amylose, ion exchange), cleaved with TEV, peptide isolated by gel filtration; not shown: MBP, N-terminal, cleaved
B4: hRio2^NES peptide used for crystallization (GGSY-389RSFEMTEFNQALEEI403) (peptide)
peptide: GGSYRSFEMTEFNQALEEI
modifications: not fully specified (residue 9); printed as GGSY^389^RSFEMTEFNQALEEI^403^
notes: residues before the NES that are left after TEV cleavage; NES of human Rio2 (hRio2), residues 389-403; The text speaks of a native and of a selenomethionine peptide; Residues 391-403 modelled; also called Selenomethione-hRio2; source: E. coli BL-21(DE3), MBP fusion purified (amylose, ion exchange), cleaved with TEV, peptide isolated by gel filtration; not shown: MBP, N-terminal, cleaved
B5: hRio2^NES-R peptide used for crystallization (peptide)
peptide: GGSYGKIEELAQNFETMEFSR
modifications: not fully specified (residue 17)
notes: also called Selenomethione-hRio2-R; source: E. coli BL-21(DE3), MBP fusion purified (amylose, ion exchange), cleaved with TEV, peptide isolated by gel filtration; not shown: MBP, N-terminal, cleaved
B6: FITC-PKI^NES peptide (FITC-SGNSNELALKLAGLDINKT) (peptide)
peptide: {FITC}-SGNSNELALKLAGLDINKT
notes: also called fluorescent-labeled PKI^NES peptide; source: synthetic peptide (GenScript)

Target: CRM1* (ScCRM1 residues 1-1058, Δ377-413, V441D, 537DLTVK541 to GLCEQ) (Saccharomyces cerevisiae, UniProt P30822 1-1058, Δ377–413 | V441D | 537DLTVK541 to GLCEQ)
Experiment: crystal structure; quaternary CRM1*-RanGppNHp-RanBP1 (Yrb1p)-NES peptide complexes, assembled 1:3:10 and purified by gel filtration in GF buffer; crystals in 17% PEG3350, 100 mM Bis-Tris pH 6.4, 200 mM ammonium nitrate, 10 mM spermine HCl
Settings: both partners purified

Does B1 bind?
Result: binds

Does B2 bind?
Result: binds

Does B3 bind?
Result: binds

Does B4 bind?
Result: binds

Does B5 bind?
Result: binds

Target: Full-length human CRM1 (HsCRM1) (human, UniProt O14980 1-1071)
Sequence (O14980 whole entry): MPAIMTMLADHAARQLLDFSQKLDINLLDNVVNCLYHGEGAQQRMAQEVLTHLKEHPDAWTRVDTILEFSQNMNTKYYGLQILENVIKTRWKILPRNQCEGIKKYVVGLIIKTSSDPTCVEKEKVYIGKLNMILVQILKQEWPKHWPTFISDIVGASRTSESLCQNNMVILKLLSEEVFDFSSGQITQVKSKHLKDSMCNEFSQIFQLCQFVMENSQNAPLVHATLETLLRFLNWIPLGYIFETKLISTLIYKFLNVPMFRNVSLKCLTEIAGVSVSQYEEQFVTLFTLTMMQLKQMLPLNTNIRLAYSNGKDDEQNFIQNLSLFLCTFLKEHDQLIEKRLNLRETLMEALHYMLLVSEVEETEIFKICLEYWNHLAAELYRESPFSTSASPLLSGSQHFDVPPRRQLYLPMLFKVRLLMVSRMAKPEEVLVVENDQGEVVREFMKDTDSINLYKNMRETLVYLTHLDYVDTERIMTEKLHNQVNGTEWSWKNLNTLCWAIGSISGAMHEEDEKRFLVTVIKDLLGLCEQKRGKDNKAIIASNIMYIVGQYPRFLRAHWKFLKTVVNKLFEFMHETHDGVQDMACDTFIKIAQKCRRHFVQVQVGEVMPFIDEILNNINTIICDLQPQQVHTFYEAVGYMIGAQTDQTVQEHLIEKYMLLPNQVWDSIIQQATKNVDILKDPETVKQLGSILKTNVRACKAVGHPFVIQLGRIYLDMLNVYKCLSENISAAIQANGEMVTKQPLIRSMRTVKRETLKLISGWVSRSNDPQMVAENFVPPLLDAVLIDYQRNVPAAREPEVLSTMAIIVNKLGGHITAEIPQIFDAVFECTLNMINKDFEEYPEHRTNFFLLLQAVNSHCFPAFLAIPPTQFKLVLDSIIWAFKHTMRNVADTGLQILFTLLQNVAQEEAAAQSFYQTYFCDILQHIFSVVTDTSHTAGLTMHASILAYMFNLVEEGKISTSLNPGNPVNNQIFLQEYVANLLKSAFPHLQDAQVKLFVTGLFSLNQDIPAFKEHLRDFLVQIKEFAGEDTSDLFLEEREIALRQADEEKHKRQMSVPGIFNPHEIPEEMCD
Experiment: differential bleaching monitored with a microscale thermophoresis instrument (direct titration); HsCRM1 serially diluted from 40 μM to 1.2 nM, mixed 1:1 with 120 μM ScRan-GTP and 40 nM FITC-PKI^NES; TB buffer with 15% glycerol, 0.05% Tween-20; 1 hr, room temperature
Settings: both partners purified

Does B6 bind?
Result: binds

— paper PMC4596688, “Structural determinants of nuclear export signal orientation in binding to exportin CRM1” (eLife, 2015)
